A short description of data set [1]: Organ distribution of 177Lu-labelled peptides in HT1080 xenograft mice. The data set is classed as in vivo, BALB/c nu/nu mice. The conditions noted are these: male, BALB/c nu/nu, mouse, HT1080 tumor, iv, total radioactivity; for tissue uptake at 1 h: 1 h p.i. The method, then: General procedure for radiolabelling with Lu-177.
• 50 μL 0.25 M Na-Acetate buffer pH 5.2+0.1% Tween 20; • 10 μL [Lu-177]LuCl3 in 0.05 M HCl; and • 2 μL of the diluted peptide (2 nmols). […]
Organ distribution studies, general method: For organ distribution, the respective dose is prepared by dilution of the labeling reaction mixture in injection buffer (0.25 M Na-Acetate pH 7+0.05% Tween20). The ^177Lu-radiolabeled peptide was injected via the tail vein of the nu/nu mice (50 kBq per mouse), transplanted with the respective cell line. At indicated time points after injection the animals were sacrificed. Blood, heart, lung, spleen, liver, kidney, muscle, brain, femur, and the tumor were dissected, blotted dry, and weighed. The radioactivity was measured with a γ-counter (CobraII; Canberra Packard) along with a sample of the injection solution to calculate the percentage injected dose per gram of tissue (% ID/g).
The γ- and β-emitter ^177LuCl3 (NEZ307D, Perkin Elmer, in 0.04 M HCl), with a t1/2 of 6.7 days was used for both in vivo biodistribution and internalization studies. Labeling reactions were performed by adding 10 μL ^177LuCl3 (˜10 MBq) in 50 mM HCl, 2 μL of the diluted peptide (1 mM solution in 50 mM HEPES buffer pH 7+0.1% Tween 20 diluted from a 10 mM DMSO stock) to 50 μL 50 mM HEPES buffer pH 7 supplemented with 0.1% Tween 20. The reaction mixture was incubated at 98° C. for 10 minutes. The radiochemical yield (RCY) was determined using high performance liquid chromatography (HPLC) system equipped with a Latek P402 (Latek, Eppelheim, Germany), a HITACHI variable UV detector (absorbance was measured at 214 and 254 nm) and a gamma detector (Bioscan, WA, USA), using a Chromolith RP-18 column (100×4.6 mm; Merck). The analytical HPLC run was performed at 4 mL/min, using a linear A (0.1% trifluoroacetic acid (TFA) in water) to B (0.1% TFA in acetonitrile) gradient (0% B to 100% B in 6 min). Thin-layer chromatography was performed in parallel to confirm the results of the radio-HPLC. The RCY was generally >95%, and thus, the output of labelling reactions was directly diluted with the appropriate buffer and further unlabeled peptide if required, to use in subsequent experiments.
5×10^6 cells of HT1080 were subcutaneously inoculated into the right trunk of male 6-week-old BALB/c nu/nu mice (Charles River Laboratories). The tumors were grown for approximately 1 week, to a maximum size of ˜200 mm^3. Respective doses were prepared by mixing a fixed quantity of 5 pmoles ^177Lu labelled peptides (at approx. 50 kBq) with different quantities of non-labelled peptide (derived from 1 mM stock solution in 0.25 M sodium acetate pH 7+0.05% Tween20) in 100 μL injection buffer (0.25 M sodium acetate pH 7+0.05% Tween20). 3 animals were used per dose and timepoint. Radiolabelled peptide solutions were injected via the tail vein, followed by sacrifice at various time points. Organs of interest (blood, heart, lung, spleen, liver, kidney, muscle, small intestine, brain, HT1080 tumor) were dissected, blotted dry, and weighed. The radioactivity was measured using a gamma counter and calculated as % ID/g.

For another data set, the target named is MT1-MMP hemopexin domain (Homo sapiens, UniProt P50281). The data set can be described thus: Fluorescence polarization direct binding / competition assay to MT1-MMP hemopexin domain. As to the method:
Direct Binding Fluorescence Polarization or Anisotropy Assays are performed by titrating a constant concentration of fluorescent tracer (here, the fluoresceinated bicyclic peptide to be studied) with its binding partner (here, the MT1-MMP hemopexin domain). As the concentration of binding partner increases during the titration, the polarization signal changes in proportion to the fraction of bound and unbound material. This allows determination of […] (Kd) quantitatively. Assay data can be fit using standard ligand binding equations.
Typically, concentrations of the tracer are ideally well below the Kd of the tracer: titrant pair, and concentrations chosen are usually at ˜1 nM or less. The titrant (binding partner) concentration is varied from 0.1 nM up to typically 5 μM. The range is chosen such that the maximum change in fluorescent polarization can be observed. Buffers employed are phosphate buffered saline in the presence of 0.01% Tween. Experiments were run in black 384 well low-bind/low volume plates (Corning 3820), and the fluorescent polarization signal was measured using a BMG Pherastar FS plate reader. Fluorescent tracers referred to in the text are bicyclic peptides that have been fluoresceinated using 5,6-carboxyfluorescein. Fluoresceination may be performed on the N-terminal amino group of the peptide, which is separated from the bicycle core sequence by a sarcosine spacer (usually Sar10 (SEQ ID NO: 73)). This can be done during Fmoc solid phase synthesis or post-synthetically (after cyclization with the molecular scaffold reagent and purification) if the N-terminal amino group is unique to the peptide. Fluoresceination can also be performed on the C-terminus, usually on a Lysine introduced as the first C-terminal residue, which is then separated from the bicycle core sequence by a sarcosine spacer (usually Sar6 (SEQ ID NO: 69)). Thus, N-terminal tracers can have a molecular format described as Fluo-Ala-Sar10-A (SEQ ID NO: 72) (BicycleCoreSequence), and (BicycleCoreSequence)-A-Sar6-K (Fluo) (SEQ ID NO: 67) for a C-terminally fluoresceinated construct.
Fluorescent tracers used in the Examples are A-(17-69)-A-Sar6-K (Fluo) (SEQ ID NO: 67), A-(17-69-07)-A-Sar6-K (Fluo) (SEQ ID NO: 67), and A-(17-69-12)-A-Sar6-K (Fluo) (SEQ ID NO: 67). Due to the acidic nature of the 17-69 fluorescent peptides, they were typically prepared as concentrated DMSO stocks, from which dilution were prepared in 100 mM Tris pH 8 buffer.
Due to their high affinities to the MT1-MMP Hemopexin domain (PEX), the fluoresceinated derivatives of 17-69-07 and 17-69-12 (denoted as 17-69-07-N040 and 17-69-12-N005, respectively) can be used for competition experiments (using FP for detection). […] Dissociation of the complex can be measured quantitatively, and the Kd of the competitor (titrant) to the target protein determined. The advantage of the competition method is that the affinities of non-fluoresceinated bicyclic peptides can be determined accurately and rapidly.
Subsequently, the non-fluorescent competitor bicyclic peptide (usually just the bicycle core sequence) is titrated, such that it displaces the fluorescent tracer from the target protein. The displacement of the tracer is measured and associated with a drop in fluorescence polarization. The drop in fluorescence polarization is proportional to the fraction of target protein bound with the non-fluorescent titrant, and thus is a measure of the affinity of titrant to target protein. […]
(In general: Fluorescence polarisation rises when a labelled molecule tumbles more slowly, as on binding a larger partner.)

From US12552837B2, “Bicyclic peptide ligands with detectable moieties and uses thereof” (BicycleRD Limited, priority 2017, dated 2026) come the findings set out here.

*1 amine or outer side, *2 acyl side, *3 side chain or, on linkers, in order; H or OH if unused. Where a SMILES comes first, the peptide text is derived from it. Bridges are numbered along the chain shown (N, C = ends). [ ]: non-standard residue; d: D form. The star is where a group is joined. DOTA = O=C(O)CN1CCN(CC(=O)O)CCN(CC(=O)*)CCN(CC(=O)O)CC1; 1Nal = N[C@@H](Cc1cccc2ccccc12)C(=O)O; TBMB = c1c(C[*:1])cc(C[*:3])cc1C[*:2]; Tle = CC(C)(C)[C@H](N)C(=O)O

By tissue uptake is commonly meant the share of the injected amount in each gram of the tissue. One may read the Kd as the constant that tells how readily two partners part at equilibrium. Low values mean a tighter complex, high ones a looser complex. On to `C[C@H](NC(=O)CN1CCN(CC(=O)O)CCN(CC(=O)O)CCN(CC(=O)O)CC1)C(=O)N[C@H]1CSCc2cc3cc(c2)CSC[C@H](NC(=O)[C@@H](C)NC(=O)[C@H](Cc2cccc4ccccc24)NC(=O)[C@H](CCC(=O)O)NC(=O)[C@H](CC(N)=O)NC(=O)[C@@H](C)NC1=O)C(=O)N[C@@H](CCC(=O)O)C(=O)N[C@@H](CC(=O)O)C(=O)N[C@@H](Cc1ccccc1)C(=O)N[C@@H](Cc1ccc(O)cc1)C(=O)N[C@@H](CC(=O)O)C(=O)N[C@@H](C(C)(C)C)C(=O)N[C@H](C(N)=O)CSC3` [I-23] ({DOTA}-AC[dA]NE[1Nal][dA]CEDFYD[Tle]C-NH2; linker 2-8-15 via TBMB), for which the values for the tissue uptake at 1 h in data set [1] (50 kBq per mouse) and in data set [1] were 12 ± 2.37 %ID/g and 12.4 %ID/g, respectively. Further, the tissue uptake at 24 h in data set [1] (50 kBq per mouse, 24 h p.i.) came out at 1.54 ± 0.06 %ID/g. On MT1-MMP hemopexin domain, this compound returned a Kd of 0.52 ± 0.24 nM.
